Paper PMC6321010, “Interaction of the GTPase Elongation Factor Like-1 with the Shwachman-Diamond Syndrome Protein and Its Missense Mutations” (International Journal of Molecular Sciences, 2018)

Assays:
[1] = biological target: T1, human Elongation Factor Like-1 (EFL1) (human, UniProt Q7Z2Z2 1-1120); experiment: fluorescence polarisation; fluorescence anisotropy; 2 µL additions of 40-90 µM human EFL1 titrated into 300 µL of 0.1 µM Lumio Green-labelled human SBDS-FlAsH construct; 25 °C; 50 mM Tris-HCl pH 8, 300 mM NaCl, 5 mM β-mercaptoethanol; fitted to a single-site or a two different binding sites model; details: both partners purified
T1 construct: human EFL1, GTPase, said to comprise 1120 residues; the expressed protein is fused to a TEV recognition site and a hexahistidine tag at the C-terminus; also called human EFL1; GTPase Elongation Factor Like-1; source: S. cerevisiae BCY123 (pRS426 backbone, GAL1/10 promoter), purified
T1 sequence: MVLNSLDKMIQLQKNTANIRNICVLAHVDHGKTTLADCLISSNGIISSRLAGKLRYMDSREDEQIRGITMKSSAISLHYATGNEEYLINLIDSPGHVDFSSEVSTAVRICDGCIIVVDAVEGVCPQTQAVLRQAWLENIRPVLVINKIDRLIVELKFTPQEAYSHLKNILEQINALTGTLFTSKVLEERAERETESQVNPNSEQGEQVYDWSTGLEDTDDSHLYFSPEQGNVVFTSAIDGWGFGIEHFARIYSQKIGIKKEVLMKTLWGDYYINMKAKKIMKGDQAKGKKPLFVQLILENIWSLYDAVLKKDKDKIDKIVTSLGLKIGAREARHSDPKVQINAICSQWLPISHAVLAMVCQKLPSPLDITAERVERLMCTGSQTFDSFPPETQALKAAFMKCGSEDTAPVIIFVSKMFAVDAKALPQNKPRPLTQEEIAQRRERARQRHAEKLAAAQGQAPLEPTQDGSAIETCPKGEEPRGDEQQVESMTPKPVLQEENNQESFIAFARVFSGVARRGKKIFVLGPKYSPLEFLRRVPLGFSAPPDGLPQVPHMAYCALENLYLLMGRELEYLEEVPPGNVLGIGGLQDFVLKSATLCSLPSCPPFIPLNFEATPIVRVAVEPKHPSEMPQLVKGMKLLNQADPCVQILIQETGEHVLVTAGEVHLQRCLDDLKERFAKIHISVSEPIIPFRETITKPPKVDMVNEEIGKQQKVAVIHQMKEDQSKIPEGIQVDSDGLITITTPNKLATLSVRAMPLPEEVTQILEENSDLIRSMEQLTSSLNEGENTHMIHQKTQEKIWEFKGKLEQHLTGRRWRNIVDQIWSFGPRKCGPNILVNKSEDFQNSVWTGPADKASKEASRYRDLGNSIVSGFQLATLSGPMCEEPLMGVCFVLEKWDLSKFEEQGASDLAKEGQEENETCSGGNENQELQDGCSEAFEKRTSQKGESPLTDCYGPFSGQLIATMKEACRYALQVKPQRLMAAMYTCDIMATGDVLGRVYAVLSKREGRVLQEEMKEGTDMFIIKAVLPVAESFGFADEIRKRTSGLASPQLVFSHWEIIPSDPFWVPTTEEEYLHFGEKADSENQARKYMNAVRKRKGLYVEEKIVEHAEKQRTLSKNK

[2] = biological target: T2, yeast SBDS orthologue Sdo1 (recombinant, for SAXS) (yeast (S. cerevisiae), UniProt Q07953 1-250); experiment: SAXS coupled to on-line size exclusion chromatography; yeast Sdo1, EFL1 and the complex EFL1•Sdo1 at 10, 6.5 and 8 mg/mL injected onto a Shodex KW-403 column; 50 mM Tris pH 8.0, 10% glycerol, 300 mM NaCl, 5 mM MgCl2; details: both partners purified
T2 construct: Sdo1, the yeast orthologue of SBDS; called the full-length Sdo1; source: E. coli C41 (pRSET plasmid), purified by conventional chromatographic techniques
T2 sequence (looked up): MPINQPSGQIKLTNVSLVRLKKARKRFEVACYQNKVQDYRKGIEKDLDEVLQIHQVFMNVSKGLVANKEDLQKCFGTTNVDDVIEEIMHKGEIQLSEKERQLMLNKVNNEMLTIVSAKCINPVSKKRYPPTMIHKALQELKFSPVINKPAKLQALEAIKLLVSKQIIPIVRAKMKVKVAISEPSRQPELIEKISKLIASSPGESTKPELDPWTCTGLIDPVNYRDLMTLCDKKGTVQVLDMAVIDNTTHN

B1: human SBDS domains 2-3 (residues 94-250) with C-terminal FlAsH tag, labelled with Lumio Green (domain or fragment, UniProt Q9Y3A5 94-250, looked up)
chain: QVSDKERHTQLEQMFRDIATIVADKCVNPETKRPYTVILIERAMKDIHYSVKTNKSTKQQALEVIKQLKEKMKIERAHMRLRFILPVNEGKKLKEKLKPLIKVIESEDYGQQLEIVCLIDPGCFREIDELIKKETKGKGSLEVLNLKDVEEGDEKFE
modifications: Lumio Green dye (4',5'-bis(1,3,2-dithioarsolan-2-yl) fluorescein) on the C-terminal FlAsH tag
notes: human SBDS, domains 2-3, residues 94-250; also called construct consisting of domains 2-3 of SBDS; source: E. coli C41 (pRSET plasmid), purified by conventional chromatographic techniques; not shown: FlAsH tag (Cys-Cys-Pro-Gly-Cys-Cys), C-terminal, kept
[1]
  Kd: 4.6 ± 0.3 µM

B2: human SBDS domain 1 (residues 1-94) with C-terminal FlAsH tag, labelled with Lumio Green (domain or fragment, UniProt Q9Y3A5 1-94, looked up)
chain: MSIFTPTNQIRLTNVAVVRMKRAGKRFEIACYKNKVVGWRSGVEKDLDEVLQTHSVFVNVSKGQVAKKEDLISAFGTDDQTEICKQILTKGEVQ
modifications: Lumio Green dye (4',5'-bis(1,3,2-dithioarsolan-2-yl) fluorescein) on the C-terminal FlAsH tag
notes: human SBDS, domain 1, residues 1-94; also called domain 1 of SBDS; source: E. coli C41 (pRSET plasmid), purified by conventional chromatographic techniques; not shown: FlAsH tag (Cys-Cys-Pro-Gly-Cys-Cys), C-terminal, kept
[1]
  Kd: 15.2 ± 0.72 µM

B3: human SBDS domain 2 (residues 94-175) with C-terminal FlAsH tag, labelled with Lumio Green (domain or fragment, UniProt Q9Y3A5 94-175, looked up)
chain: QVSDKERHTQLEQMFRDIATIVADKCVNPETKRPYTVILIERAMKDIHYSVKTNKSTKQQALEVIKQLKEKMKIERAHMRLR
modifications: Lumio Green dye (4',5'-bis(1,3,2-dithioarsolan-2-yl) fluorescein) on the C-terminal FlAsH tag
notes: human SBDS, domain 2, residues 94-175; also called domain 2 of SBDS; source: E. coli C41 (pRSET plasmid), purified by conventional chromatographic techniques; not shown: FlAsH tag (Cys-Cys-Pro-Gly-Cys-Cys), C-terminal, kept
[1]
  Kd: 10.8 ± 0.9 µM

B4: yeast EFL1 (recombinant, for SAXS) (enzyme, yeast (S. cerevisiae), UniProt P53893 1-1110, looked up)
chain: MPRVESETYKRLQNDPSCIRNICIVAHVDHGKTSLSDSLLASNGIISQRLAGKIRFLDARPDEQLRGITMESSAISLYFRVLRKQEGSDEPLVSEHLVNLIDSPGHIDFSSEVSAASRLCDGAVVLVDVVEGVCSQTVTVLRQCWTEKLKPILVLNKIDRLITELQLTPQEAYIHLSKVIEQVNSVIGSFFANERQLDDLFWREQLEKNENAEYIEKDDSGIYFNPTDNNVIFASAIDGWGFNIGQLAKFYEQKLGAKRENLQKVLWGDFYMDPKTKKIINNKGLKGRSLKPLFTSLILENIWKIYQNIITSRDSEMVEKIAKTLNIKLLARDLRSKDDKQLLRTIMGQWLPVSTAVLLTVIEKLPSPLESQTDRLNTILVSESDTAAMDPRLLKAMKTCDKEGPVSAYVSKMLSIPREELPVESKRIASSDELMERSRKAREEALNAAKHAGMVENMAMMDLNDNSKNTSDLYKRAKDTVMTPEVGEQTKPKPSRNNDVFCVVSEPSSALDLEFEYEGEDDSDSQDNFGLDFVPTDIDPNDPLSSMFEYEEEDPLLESIKQISEDVNDEVDDIFDEKEECLVAFARIYSGTLRVGQEISVLGPKYDPKCPEEHIETAIITHLYLFMGKELVPLDVCPSGNIVGIRGLAGKVLKSGTLIEKGVQGVNLAGVNFHFTPIVRVAVEPANPVEMSKLVRGLKLLDQADPCVHTYVENTGEHILCTAGELHLERCLKDLTERFAGIEITHSEPAIPYRETFLSASDMNPPQNSQLGRGVHELLLSQYKITFRTFPLSGKVTDFLSQHQNSIKNILKTSTSSMDPVIESTGSSFLDKKSLLVAFEEVINQEEKSRELLSGFKVKLAGFGPSRVGCNILLSQDNLLGSLFEGTPAAFEYSDSIKNGFQLAVSEGPLANEPVQGMCVLVESVHKMSQDEIESIEDPRYQQHIVDLSGRLITSTRDAIHEAFLDWSPRIMWAIYSCDIQTSVDVLGKVYAVILQRHGKIISEEMKEGTPFFQIEAHVPVVEAFGLSEDIRKRTSGAAQPQLVFSGFECIDLDPFWVPTTEEELEELGDTADRENIARKHMNAIRRRKGLFIEEKVVENAEKQRTLKKN
notes: yeast EFL1 (GTPase); the model's rigid parts run over residues 1-1110; source: S. cerevisiae BCY123 (pRS426 backbone, GAL1/10 promoter), purified
[2]
  stoichiometry N: 1
